Measurements: the DeepSol protein solubility set

Assay: soluble on expression in E. coli; label from the status in PepcDB or PDB records

Soluble on expression in E. coli, soluble:
MSLTAPRILMTRPDHYGVTYAINPWMTPESWAGNQTVALAEAATQWQALADALGAVGFALEILPGQPGLPDMVFPANAAIVFDGIALVARFRHPERQGEEAHFHAAFEALRQRGLLSAVHSLPEGVFQEGAGDCLWDASRQLFFAAHGPRSSRASIEVIAETFGQEIVRLELVDPRFYHLDTCFCVLPGGEVLTFTPALSTASLERLRAVVAPEMLIEADFAAASAFSINAVAHGREVVMANPPASLRALLEERGYHVHGLELGRFMQSGGGSYCMTLRLDRRARAEGHHHHHH
MIKLRMPAGGERYIDGKSVYKLYLMIKQHMNGKYDVIKYNWCMRVSDAAYQKRRDKYFFQKLSEKYKLKELALIFISNLVANQDAWIGDISDADALVFYREYIGRLKQIKFKFEEDIRNIYYFSKKVEVSAFKEIFEYNPKVQSSYIFKLLQSNIISFETFILLDSFLNIIDKHDEQTDNLVWNNYSIKLKAYRKILNIDSQKAKNVFIETVKSCKY
MGSSHHHHHHSSGLVPRGSHMTVYTASVTAPVNIATLKYWGKRDTKLNLPTNSSISVTLSQDDLRTLTSAATAPEFERDTLWLNGEPHSIDNERTQNCLRDLRQLRKEMESKDASLPTLSQWKLHIVSENNFPTAAGLASSAAGFAALVSAIAKLYQLPQSTSEISRIARKGSGSACRSLFGGYVAWEMGKAEDGHDSMAVQIADSSDWPQMKACVLVVSDIKKDVSSTQGMQLTVATSELFKERIEHVVPKRFEVMRKAIVEKDFATFAKETMMDSNSFHATCLDSFPPIFYMNDTSKRIISWCHTINQFYGETIVAYTFDAGPNAVLYYLAENESKLFAFIYKLFGSVPGWDKKFTTEQLEAFNHQFESSNFTARELDLELQKDVARVILTQVGSGPQETNESLIDAKTGLPKE
MATHKPINILEAFAAAPPPLDYVLPNMVAGTVGALVSPGGAGKSMLALQLAAQIAGGPDLLEVGELPTGPVIYLPAEDPPTAIHHRLHALGAHLSAEERQAVADGLLIQPLIGSLPNIMAPEWFDGLKRAAEGRRLMVLDTLRRFHIEEENASGPMAQVIGRMEAIAADTGCSIVFLHHASKGAAMMGAGDQQQASRGSSVLVDNIRWQSYLSSMTSAEAEEWGVDDDQRRFFVRFGVSKANYGAPFADRWFRRHDGGVLKPAVLERQRKSKGVPRGEA
MDSEKIKIFTRNYKGSLIMSKRSPKSVSEKLEIVLLRLEEGKSLSWLTRNQGISKDTLSNWVRKYKEAGVDGLEESRQWKKYSKELKEQAVSDYLNGLGSLKDLTKKYGISDPYVLRSWIKSYTSGKELKATSKGMRRMKQGRKTTFEERIEIVNFTLAHEKDYQGAVEKYGVSYQQIYSWVRKFEKDGSNGLLDRRGKGLTSKPNLTPEEELRLKIKQQEERIKYLEMENGLLKKLEEIKRRNRRLEHHHHHH
MSLETGVTNDAIIIGQSAAMSGPAGKLGQQMNLGAKLYFKSINAAGGIYGRKIELKVLDDFYEPEAAERNTKTLINDTKVFALFGYVGTPTSLAALKVANPAGVPFFAPYSGAMALREPFARNVFHVRASYNDETAAIVQQIRTTGHKRVAVVYNDDSYGAAGLAGVKRALALPENKAVALAVEASVPRNSTTVKAALSKVLPSKADSVVVISTYQTTAALVKEALAEGFTGQFYNVSFVGTKELADALGSAGGGVVVSQVMPFPHSMSSALTRDYEKLLKADGVTSFDYGSMEGYIAARIFVEGLKRAGRDLTREKLITALETMGSTDLGGFAVSFSPTNHVASKFVEMTVINSHGQVIREGHHHHHH

Soluble on expression in E. coli, not soluble:
MAIPDYQAVMLPLLKYAGDGKEHHIRDAIEKLAEEFELSEEERKELLPSGQQAIFKNRIGWANTYLKKAGLLGSRKKGYFSITRRGLDVLREKPPSIDVSFLKRYKEFNEFYNKDKQVLIDKPDVPEAEGKRALDPEESLEIAYQKLHNELVSEIISTTKKCSPAFFESLVVDVLTKMGYGGSRVDAGKAIGKSHDGGIDGIIKEDRLGLDVIYIQAKRWEGTVSKPEIQKFAGALIGKKAKKGVFITTSSFSKEAIEYADFTGNIVLVDGEMLARLMIEYNVGVSRVKSYEVKKMDTDYFEDGVI
MTFYFYFVINMEKVAIYIIGDIVLAENTGKALKKWRNLFNIQQIELAKYLNVSPSVISDYEVGRRKNPGVNIIKKYVLALIEIDKEKGGQTIKALKRILDKSPSMKAILSIKEYENPITLNEFVNIIDGEIAVGDNSDTPIYGHTVVDSIKAILEMTGDDFYHLYGWTTERALIFTNVSTGRSPMVAVRVSIMKPRVVVLQGINKDKIDSLALKLAEIDNIPLITTHLDTKELIKRLNEIK
MTSRGITSLSNHLIPLSFPARLRIDQADKQAQAGLMKDHAQHTANIGKFQDSFVTADGQARASVPLSRPETLWFNTGTLCNIECANCYILSSPKNDALVYLSADEVSAYLDQIAARGWPVHEIGFTGGEPFMNPQIIAMSRTALERGFEVLILTNAMRPMMRKTMRLGVAALVRDFGDRLTLRVSVDHHSAACHDAERGAGSFARTLAGMVWLRDCGARMTVAGRTVWGESEAEARAGYAALYAEYGFAIDAFDPGQTVLFPEMDERVEVPEITTACWDILGKSPETVMCASSRMVVKRKGAAHPVVLACTLLPYAPEFELGQTLAEAERPVQLNHPHCAKFCVLGGASCSA
MIYSIPFLFFIIVSCSNSSTEMVAKSKYDAKIAEYKELNEQQAAVIEDNLEKSKIINNVVTELNQIAGNTHSLRVNVEHGVGELSQAEEINQKLQTLKKRLSAVEGKRSDGSKNLLATMDKLKSIIEQKEIEINNLKQEIANQQQTIANQKNTIASQQVTIDAQSQELMNKQQEMWYKLGTELHSVVEELPKVKGRKDKRNIKNTRYYILNKAKECFEHAAQLGHSLAGSKARQVEGEMSRL
LFSCIISSIETTKYVGISGVNKSVIDYTPAADMELVTIGESLSLKHPPIDATGCPSPATITRAAVDLLKIPIMTIDAGSYVKPKIPYISVDQRPTGDIQKGLGMDNSKELLNLGKIIGNNNIYDSLVIGESVPGGTTTALGVLLGLGYDARDKISSGSVENPKDLKLSVVENGLKTCKSEDVFDVLNAVGDKMMPVVAGMTISAVSKGK
MSLKITADEALTLSKSNGSDIFLLCSFANKLREKFNGNHVDLCSVINAKSGNCSEDCAFCAQSAHHKANVSCYPLLNEDKILEMAKQREAYGARHCDIATSGLGYTGDEKDFQTILKAFKKMKENTNLKLCACLGTLTEKAMNSLAAVGVERYNHNLETAKSFYKNIVSTHGYDERIKTINYAKNAKMEVCSGMIVGLGETMEQRIEHALLLRDLNVDAVPVNILNPVKGTKLENAKPLSPMEIIKTFAIIRFILPDKIIRYAGGREKNLRSLQPLGFLSGLNGMLIGNYLTTNGQSVNDDFNMLKDLELEYEGHHHHHH
MGSSHHHHHHGGTGENLYFQGGSGMSRVPRPHIHQRISVEDIMKGNRRTLAKAITLAESSNPADSTRLGNLLREIHQMATVRTVPRFALSGSPGSGKSSLLDTLGYYLCEKKNMHVGVLAVDPSSTITHGSILGDKTRMEKLGTHLNSYIRPSPSGGHLGGVTSRAWEALEIFEAARFDVVFVETVGVGQSETQCKDLTDMMILLVPPASGDELQGIKKGVVEVADMVVVTKNDGRRKPLVQQTMSAYARAVMYTEEKQGFEKPVIAVSAEEGTNVPELWEAMLKMWNARLESGQIAHLRRAQSTKHFYNYFEMELLAKARRMTNLEMQNMAHRVWEHEMTPREAGDIMVLRTLREHLAADAAVQHDAGKRA
MGSDKIHHHHHHMTPEKIEQIFRSFKEKKIAVIGDVMIDKYIFGHVSRISPEYPVPVVDVNRESSRLGGAANVAVNIHALGAEALLIGVTGDDTERRNLEALMTEHGLNPAMLAADSTRPTTCKTRILSQNHHITRVDYESRTPVDAELEKRLLGMFMEIANAVDAVVLEDYNKGVLTPSLIVSLIAACRERNKPVLVDPKLKGFFSYGGCSVFKPNLSELAASLGIPVANDDREVEQACLLLGEKLTVESLVVTRSEKGMTVYDGSFTHIPALSLDVADVSGAGDTVIGTLALGLASGLDLVTSTRIANLAANTVCQEVGAVPVRPDKLFSACLAHLQ
GPGSMERNPAHPLDATAKLPVRQKEVTFDSLCVNADDRFVEGLSGKSEERRGFRPNTKLYAANAARTRGRTGGASDLGFTESLPTLNEVIGEEKISHLGRLRARPPRAAEGSTDVIPVARVKAKSSLTRPVHATPTSIPSTRSLWVEGSSVLNQDVGHASAALTHLSDCVAQERRLKVEWEAARLAKIRALRAVVKVFMQSFIDRGSFARSTSVGGKVMSDTLAVARCSVITNTLVGTVQNFMRAFRSRRLCAARGPVSGLQLFPNIAGQESDRFTLSLYSSAPGGAESSVNESYVSPNHSVSDYLEEEEVSRIKQLYFDYFDCEAVSISSAVASGSDMSIFAYSAASSISRPSSPVSRGGDHSSFSHCASTTM
MGSDKIHHHHHHMVANPALPEGISDLPAGTLASVVTYLEMKTPPPIKGLETPPGLRLLRHDAPDVEWYCRLYRLVGEDYLWFSRLMWDYATLAAHLASDRVEVWSLQKQGVDLGLLELEWMQDGDCELSFFGLSKELIGAGVGRWLMEHATARAFSREISRFFVHTCTLDSPQALGFYMRSGFVPYGRAVEIAEDPRLTGLIPKTAAAHVPLIQR
MSLAANMYRVGDYVYFENSSSNPYLIRRIEELNKTASGNVEAKVVCFYRRRDISNTLIMLADKHAKEIEEESETTVEADLTDKQKHQLKHRELFLSRQYESLPATHIRGKCSVALLNETESVLSYLDKEDTFFYSLVYDPSLKTLLADKGEIRVGPRYQADIPEMLLEGESDEREQSKLEVKVWDPNSPLTDRQIDQFLVVARAVGTFARALDCSSSVRQPSLHMSAAAASRDITLFHAMDTLYRHSYDLSSAISVLVPLGGPVLCRDEMEEWSASEASLFEEALEKYGKDFNDIRQDFLPWKSLTSIIEYYYMWKTTDRYVQQKRLKAAEAESKLKQVYIPTYSKPNPNQISTSNGKPGAVNGAVGTTFQPQNPLLGRACESCYATQSHQWYSWGPPNMQCRLCAICWLYWKKYGGLKMPTQSEEEKLSPSPTTEDPRVRSHVSRQAMQGMPVRNTGSPKSAVKTRQAFFLHTTYFTKFARQVCKNTLRLRQAARRPFVAINYAAIRAECKMLLNSEGHHHHHH
MPKRRYNPSANEEEKIPIVEKLYRENQESDFLGGGFCDDDDEVQERREQISEMRQKREEAAHNLIQAPENCEKCDKGLMDSWLWERYNCAVCDACRDDKGEHKLLARTEVKNTYLLKDCDLDLRKPKLRYWAKKNPHNPRYGDMKLYLKCQIETRVLEVHGSWEDLELKKELREQSKEVRSEKRFEKKLKDLRQQIRGTSGVKVDFGRPHTHEFGKETHVEEDTWRRTCITCEYEEVFEKL
MSFRPEYKEYFKQGATARIYNGAFEDAGFYDEVDIKEFEYSREEKTFYYPCPCGDRFEISLEDLRNGEVVARCPSCSLIVCTVYEAEDLEKYL
MGSDKIHHHHHHMAGSLIERTLRVLETLSSEPDGIPLQRLAERLEIPKSAAHRICNELGRQGYVRQETRTGHYRLSTRLIALGFRYLGSTGASDVLQPILDRLADETGELVRLGVIEGDRQTWIAKAQGTRTGLRYDPDMGREAPLRYTASGQAWLASLDDQAALALLERQGHHNPEHFGPNAPRTDYELLDRLALARERGYTCCVDSSALGTSAFGAVIRHPMQGHTIGVISVAGPSVRLTEDRMHELAPKLLQAVEELSQCSQASQLFSE
MSRIEQLISDIESYIDNCKYYPLSNVKIIVNKEQLEDMLTELRLKTPDEVKKYQKILSNKDAILADAKEQADAIINAAQIQTEELINEHEIMQRAYAQANELIEQATAQAQTILDNATEEANSIRYGAMQYTDDMLAKLQYIIEHSIKDNKEKYDSLLSGLENVLSVVNNNRNELSGIEENSTEESADTDASNETDSQSDDEE
